Measurements: the supplement of paper PMC9170038

Test system: MS2 coat protein
Test: apparent KD of MS2 coat protein; designed switch direction (-1 OFF switch, 1 ON switch): 1; higher = weaker reporter binding
Outline: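 On Illumina chips, designed RNA switches with common flanks were made by stalled E. coli RNA polymerase. Titrations with SNAP-549-labelled MS2 coat protein, doubling from 0.7 or 1.5 nM to 3 µM, were done with no input, with 200 uM small-molecule ligand, or with an oligonucleotide input. Apparent KD is the median per design over clusters, from curve fits of normalised cluster fluorescence.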

[1] = Eterna round: R95, input ligand: FMN 200 uM
[2] = Eterna round: R95, input ligand: microRNA oligo, concentration not stated
[3] = Eterna round: R95, input ligand: none
[4] = input ligand: microRNA oligo, concentration not stated

AGUCUACGGUGACGUAGACAGUAGUGCGUACAUGAGGAUCACCCAUGUCAUGUAAGAGUUACUUGUUCGUCUUGAAC [SENSOR #3] (puzzle: Sensor for hsa-mir-208a)
apparent KD of MS2 coat protein [1]: 20.4 nM | apparent KD of MS2 coat protein [2]: 16.9 nM | apparent KD of MS2 coat protein [3]: 20.2 nM

AGUUGAAAUACAGGAUAUAUAUUAUUUUUAUUUAUAGAAGGGUAAUCACAUGAGGAUCACCCAUGUAUAUACGAGGAAGAAGAG [JMF's solution 1] (Eterna round: R96, puzzle: Same State NG 1)
apparent KD of MS2 coat protein [4]: 182 nM

AUAAAACAUGAGGAUCACCCAUGUCAACAAAGUCGAGGAUAUGGGCAAAUAAAAUAAGAUCCAGAAGGCGAAUAAU [salish99_ss1_r3_016] (puzzle: Same State 1)
apparent KD of MS2 coat protein [1]: 97.3 nM | apparent KD of MS2 coat protein [2]: 36.3 nM | apparent KD of MS2 coat protein [3]: 92.7 nM

AUAAAACAUGAGGAUCACCCAUGUCAACUAAGUCGAGGAUAUGGGCAAAUAAAAUAAGAACCAGAAGGCGAAUAAU [salish99_ss1_r3_041] (puzzle: Same State 1)
apparent KD of MS2 coat protein [1]: 34.3 nM | apparent KD of MS2 coat protein [2]: 322 nM | apparent KD of MS2 coat protein [3]: 361 nM

AUACAAAACACAAAUACAAACAAAUACAAACAUGAGGAUCACCCAUGUGCAAUACGACUCUUUAUGGCUGGUCUUCA [Onvete] (Eterna round: R96, puzzle: Sensor for hsa-mir-208a)
apparent KD of MS2 coat protein (input ligand: FMN 200 uM): 87.7 nM | apparent KD of MS2 coat protein [4]: 60.1 nM | apparent KD of MS2 coat protein (input ligand: none): 107 nM

AUACAUAUCAGAGGAUAUCACGUCGAAUAGACGUGAGAAGGCUGAUCACACAUGAAUAUUAAUACAUGAGGAUCACCCAUGUAU [SSNG1/14-A1] (Eterna round: R96, puzzle: Same State NG 1)
apparent KD of MS2 coat protein (input ligand: FMN 200 uM): 13.1 nM | apparent KD of MS2 coat protein [4]: 13.3 nM | apparent KD of MS2 coat protein (input ligand: none): 17.4 nM

AUAUAUAUAAGGAAGGAUAUCUUAGAAAAAACAUGAGGAUCACCCAUGUAAAUAAAGAAUAAAUGGGAGAAGGUCCAUAUAUAUA [77%, More Tesla, 10] (Eterna round: R96, puzzle: Same State 2)
apparent KD of MS2 coat protein [4]: 22 nM

AUAUUUAAUGCAGGAUAUGAUUAACAUGAGGAUCACCCAUGUGGUGUUGUGAGUAAGGAGAGUGAUCAGAAGGGCAUUUUUUUU [JMF's solution 100] (Eterna round: R96, puzzle: Same State NG 2)
apparent KD of MS2 coat protein (input ligand: FMN 200 uM): 821 nM | apparent KD of MS2 coat protein [4]: 322 nM | apparent KD of MS2 coat protein (input ligand: none): 467 nM

AUGCUCGUGUGAGGAUAUGCCGCCGUUUCGGCUGCAGAAGGUGCUACGUUACAUGAGGAUCACCCAUGUCUCUGUUGUUUCGUG [salish99_SSNG1_r04_942] (Eterna round: R96, puzzle: Same State NG 1)
apparent KD of MS2 coat protein [4]: 18.7 nM

AUUAAACAUGAGGAUCACCCAUGUCAACAAAGUCGAGGAUAUGGGCAAAUAAAAUAAGAACCAGAAGGCGAAUAUU [salish99_ss1_r3_080] (puzzle: Same State 1)
apparent KD of MS2 coat protein [1]: 38.5 nM | apparent KD of MS2 coat protein [2]: 407 nM | apparent KD of MS2 coat protein [3]: 180 nM

AUUAAACAUGAGGAUCACCCAUGUCAACAAAGUCGAGGAUAUGGGCAUAUUAUCUUCUUUCCAGAAGGCGAAUAAU [salish99_ss1_r3_089] (puzzle: Same State 1)
apparent KD of MS2 coat protein [1]: 431 nM | apparent KD of MS2 coat protein [2]: 136 nM | apparent KD of MS2 coat protein [3]: 404 nM

AUUAAACAUGAGGAUCACCCAUGUCAACUAAGUCGAGGAUAUGGGCAAAUAAAAUAAGAACCAGAAGGCGAAUAAU [salish99_ss1_r3_074] (puzzle: Same State 1)
apparent KD of MS2 coat protein [1]: 55.9 nM | apparent KD of MS2 coat protein [2]: 347 nM | apparent KD of MS2 coat protein [3]: 260 nM

AUUAAGAGCGUAGGAUAUGGGAAAGGAAGUGUACCAGAAGGACGAAUACAGCGUCCGGACAUGAGGAUCACCCAUGUAGGACGG [PowerStrip SSNG 1.18] (Eterna round: R96, puzzle: Same State NG 1)
apparent KD of MS2 coat protein (input ligand: FMN 200 uM): 10.4 nM | apparent KD of MS2 coat protein [4]: 23.9 nM | apparent KD of MS2 coat protein (input ligand: none): 56.2 nM

AUUACUAACAUAGGAUAUCAUGCGAAAAUUGCGUGAGAAGGGUGGACACUGUCUUUCUCGGAGUACAUGAGGAUCACCCAUGUG [SameState NG1 #68] (Eterna round: R96, puzzle: Same State NG 1)
apparent KD of MS2 coat protein (input ligand: FMN 200 uM): 564 nM | apparent KD of MS2 coat protein [4]: 138 nM | apparent KD of MS2 coat protein (input ligand: none): 147 nM

AUUAUUGAUGCAGGAUAUGAUUAACAUGAGGAUCACCCAUGUGGUGUUGUGAGUAAGGAGAGUGAUCAGAAGGGCAUUUUUUUU [JMF's solution 23] (Eterna round: R96, puzzle: Same State NG 2)
apparent KD of MS2 coat protein (input ligand: FMN 200 uM): 747 nM | apparent KD of MS2 coat protein [4]: 435 nM | apparent KD of MS2 coat protein (input ligand: none): 436 nM

AUUAUUUAUGCAGGAUAUGAUUAACAUGAGGAUCACCCAUGUGGUGUUGUGAGUAAGGAGAGUGAUCAGAAGGGCAUUUUUUUA [JMF's solution 56] (Eterna round: R96, puzzle: Same State NG 2)
apparent KD of MS2 coat protein (input ligand: FMN 200 uM): 476 nM | apparent KD of MS2 coat protein [4]: 410 nM | apparent KD of MS2 coat protein (input ligand: none): 302 nM

AUUAUUUUUGCAGGAUAUGAUUAACAUGAGGAUCACCCAUGUGGUGUUGUGAGUAAGGAGAGUGAUCAGAAGGGCAUUUUUUUU [JMF's solution 60] (Eterna round: R96, puzzle: Same State NG 2)
apparent KD of MS2 coat protein (input ligand: FMN 200 uM): 449 nM | apparent KD of MS2 coat protein [4]: 410 nM | apparent KD of MS2 coat protein (input ligand: none): 315 nM

AUUCGUUAGAUAGGAUAUCACCAUACAUGAGGAUCACCCAUGUUUACCACGCUGGUUUUUCAUACUGAGAAGGAUCUUGAUGAC [JR_SSNG2_Sub006] (Eterna round: R96, puzzle: Same State NG 2)
apparent KD of MS2 coat protein (input ligand: FMN 200 uM): 20.7 nM | apparent KD of MS2 coat protein [4]: 16.7 nM | apparent KD of MS2 coat protein (input ligand: none): 30 nM

AUUGCUGUCACAGGAUAUCAUGCGGAAAUCGCGUGAGAAGGGUGGACUCUGUCAUUCACGGAGGACAUGAGGAUCACCCAUGUC [SS NG10LRO18] (Eterna round: R96, puzzle: Same State NG 1)
apparent KD of MS2 coat protein (input ligand: FMN 200 uM): 508 nM | apparent KD of MS2 coat protein [4]: 29 nM | apparent KD of MS2 coat protein (input ligand: none): 62.4 nM

AUUGCUGUCACAGGAUAUCAUGCGGAAAUCGCGUGAGAAGGGUGGACUCUGUCAUUCACGGAGGACAUGAGGAUCACCCAUGUG [SS NG10LRO19] (Eterna round: R96, puzzle: Same State NG 1)
apparent KD of MS2 coat protein (input ligand: FMN 200 uM): 66.3 nM | apparent KD of MS2 coat protein [4]: 8.78 nM | apparent KD of MS2 coat protein (input ligand: none): 22.3 nM

AUUGCUUACGCAGGAUAUGAUGUGGAAACUGCGUCAGAAGGGUGAACAGUAUCGUUGCAAGAGGACAUGAGGAUCACCCAUGUC [SameState NG1 #98] (Eterna round: R96, puzzle: Same State NG 1)
apparent KD of MS2 coat protein (input ligand: FMN 200 uM): 27.9 nM | apparent KD of MS2 coat protein [4]: 20.6 nM | apparent KD of MS2 coat protein (input ligand: none): 31.4 nM

AUUUAACAAGCUUUUUGCUCGUCUUAUAAACAUGAGGAUCACCCAUGUAAUAGCGUGAGAGUAAUUAUAUAAAUAAU [JMF 86] (puzzle: Sensor for hsa-mir-208a)
apparent KD of MS2 coat protein [1]: 16.4 nM | apparent KD of MS2 coat protein [2]: 43 nM | apparent KD of MS2 coat protein [3]: 15.4 nM

AUUUAACAAGCUUUUUGCUCGUCUUAUAAACAUGAGGAUCACCCAUGUAAUAGCGUGAGAGUAAUUUUUUAAAUAAU [JMF 96] (puzzle: Sensor for hsa-mir-208a)
apparent KD of MS2 coat protein [1]: 20.3 nM | apparent KD of MS2 coat protein [2]: 34.3 nM | apparent KD of MS2 coat protein [3]: 17 nM

CAAGAAAACGCAGGAUAUACCCGGGCUACCCGGGUAGAAGGGUGACACAUGAGGAUCACCCAUGUACAUAGAAUUAGCUAUGGA [Soberaa] (Eterna round: R96, puzzle: Same State NG 1)
apparent KD of MS2 coat protein (input ligand: FMN 200 uM): 284 nM | apparent KD of MS2 coat protein [4]: 15.9 nM | apparent KD of MS2 coat protein (input ligand: none): 26.7 nM

CACAUCCAGGUAGGAUAUGAGGUGCCAUAGGGAAAAGCCUAUGGACAUGAGGAUCACCCAUGUCCUCAGAAGGGCCGGACGUGA [Ceerbearre] (Eterna round: R96, puzzle: Same State NG 2)
apparent KD of MS2 coat protein (input ligand: FMN 200 uM): 26.5 nM | apparent KD of MS2 coat protein [4]: 79.6 nM | apparent KD of MS2 coat protein (input ligand: none): 96.7 nM

CAGCACUAUCGAGAGGAUAUGCGGUGAUGGACAUGAGGAUCACCCAUGUUAGCGAUGGCAUCACGGCAGAAGGCUCUGCUGCUGC [Soteed Omei mod 38] (puzzle: Same State 2)
apparent KD of MS2 coat protein [2]: 13.2 nM

CAGCGCUGUCGAGAGGAUAUGCGGUGAUAGACAUGAGGAUCACCCAUGUUAGCGAUAGCAUUACGGUAGAAGGCUCUACAGCUGC [Soteed - 12] (puzzle: Same State 2)
apparent KD of MS2 coat protein [1]: 29 nM | apparent KD of MS2 coat protein [2]: 73.3 nM | apparent KD of MS2 coat protein [3]: 103 nM

CAGCGCUGUCGAGAGGAUAUGCGGUGAUGGACAUGAGGAUCACCCAUGUUAGCGACAGCAUCACGGCAGAAGGCUCUACCCGCUG [Soteed Omei mod 44] (puzzle: Same State 2)
apparent KD of MS2 coat protein [2]: 10.6 nM

CAGCGCUGUCGAGAGGAUAUGCGGUGAUGGACAUGAGGAUCACCCAUGUUAGCGAUAGUAUUACGGUAGAAGGCUCUACAGCUGC [Soteed - 11] (puzzle: Same State 2)
apparent KD of MS2 coat protein [2]: 43.6 nM

CAGUGCUGUUGAGAGGAUAUGCGGCGACGGACAUGAGGAUCACCCAUGUUAGCGACAGCGUUGCGGCAGAAGGCUCUGCCCGCUA [Soteed Omei mod 51] (puzzle: Same State 2)
apparent KD of MS2 coat protein [2]: 39.3 nM

CAUCGUUUGAUAGGAUAUCGCUAUACAUGAGGAUCACCCAUGUUUACCACGCUGGUUUUUCAUACCGAGAAGGAUUCUGAUGUU [salish99_SSNG02_r04_015] (Eterna round: R96, puzzle: Same State NG 2)
apparent KD of MS2 coat protein (input ligand: FMN 200 uM): 36 nM | apparent KD of MS2 coat protein [4]: 25.2 nM | apparent KD of MS2 coat protein (input ligand: none): 38.6 nM

CCAAAGUACAAUUUAGAUCUACAUGAGGAUCACCCAUGUACUGAGGAUAUCAGCUCGUUUAGAGCUGAGAAGGCAGAAUUAAUU [SSNG3/4-A3] (Eterna round: R96, puzzle: Same State NG 3)
apparent KD of MS2 coat protein (input ligand: FMN 200 uM): 135 nM | apparent KD of MS2 coat protein [4]: 111 nM | apparent KD of MS2 coat protein (input ligand: none): 224 nM
